The text below walks through data of PMC6331215 (Journal of molecular biology, 2018).

Data set [1] deals with M. marinum EspG3 (construct for SAXS) (M. marinum E11) (UniProt B2HNX0). Description: SAXS.
Data set [2] concerns the molecule itself. As to the kind of experiment: SAXS.

In data set [1], “M. marinum EspG3 (construct for SAXS) (from UniProt B2HNX0 1-298) (natural protein)” came in with a dimeric fraction at 4.0 mg/ml (wing-shaped dimer model, 4L4W) of 1 and a dimeric fraction at 6.0 mg/ml (wing-shaped dimer model, 4L4W) of 1.

B1: M. marinum EspG1 (natural protein)
chain: MTGPLATGRAGTGDDVVGVEVTIDGMLVIADRLHLVDFPVTLGIRPNIPQEDLREIVWDQVARDLTAQGVLDHNGQPHPAVAAMVDTLSRADRTLEGRWWRRDVGGVMVRFVVCRKGERHVIAVRDGDMLVLQLVAPRVGLAGMVTAVLGTAEPANVEPLTGIASELGECTNAAQLTRYGLTPTTARLYTEIVTNPKSWVEIVASERHPGGTTTHTKAAAGVLDSAHGRLVSLPRQVGGELYGSFLPGTEQNLQRALDSLLELLPSGSWLDRADATARG
For the molecule B1, in data set [2], the “stoichiometry N” value was found to be 2.

A word on the stoichiometry N: it is a count of units in the complex or per binding partner.
